The series is described as follows: label from the status in PepcDB records.
Take “MSIIEDNKISFVIPTINEEKTIGSVIDGIHENFPNAEIILVDTNSTDKTKEIAKSKGATVIEEPRKGYGRAYQTGIPAAKGDIIVCMDGDGTYPTDIVKPLIEILILDKVDFISCDRITFRTSTNYTTLHYVGNMVLNLTIRILFKVRMVDSQSGMWIFRSELYKKMKNLGYGMSFSQNIKIEAVRHGVFIEIPIRYGVRITKPKLKTWHDGFHNLFALFIKRVSELEHHHHHH”: the protein production result was “not failed”.

For “MSIQMATSNDLEWINNQYDSIGFVRSDLKRDKVAIITYNNEYAGIGRLVQIDEDTLEMGGILILPKFRGLQLAGELVSFLVETAKKLQVQHVYCLPFEELENFYKKYGYTEVDTTKEFVHPIILEKYNWCLDHYEKHVLLFKL”, the protein production result is given as “failed”. For “MSIRIDRQRCIGCGKCAEICPGNLIVIDEDKKAFVRDPRDCWGCAACVKECKFSAIRYFLGAEIGGNGTTMYVEKENDEIMYWYFEKPSGEKEMIVQNLKDNTTYLEHHHHHH” the value was “failed”. For “MSIRIKLFLAFLLTTFVVVMGMHFFTRWSLEKGFTEFIEKRQQERLDKIIDVLEEHYAEHRGWGELAGNKQHWISLLWHAGPHRHRPPKWIIEQAQHEPDRQWPPAVTPGTAERKWSPFELRVILLDADRSILFGRKELISQLSLHPVQYEHRTVGFLGLLPGNPVSQASDIYFMEQQADFFFWIALTMVVLSALIAWLMAYHLGRPLKQIAAVVQRLATGDYKARLPVISKDEMGQLALNFNDTAAALEQAEQSRRRWVADISHELRTPLAVLRGELEAILDGVHPLTPAAIESLSGDVLRLNRLTEDLYQLALSDQGALSYRKVLLDPVPLLREDLATFTTDFNHKQISVRWINRLFKPVLVNADPDRLSQLFRNLLTNSLNHTDARGQLEITVQRLADKLVIELADSSPGVSDQDIAHLFDRFYRVDHSRNRHLGGAGLGLAICSNIVRAHEGTLMASHSALGGLAIHIELPITP” the value was “failed”. For “MSIRLAQVTDIPVLKELLNQIFQVHQTVRPDLFKNTDKGSKYSETELKELLQDESKPIFVYTDGKNRVLGHLFLVIKETKGSSVSKPLKTLFIDDLCVSKEARGQKIGQELFEFALKYAKKLGCYDLTLNVWNDNKGALAFYERQGLKARETKMEKILLEHHHHHH”, the protein production entry was “not failed”.

For “MSIRLTNISKKFGQFQALSPLNLDIQEGEMIGLLGPSGSGKTTLLRIIAGLEGADSGHIHFGNRDVTQVHVRDRRVGFVFQNYALFRHMTVADNVAFGLEVIPKKQRPSAAEIQKRVSHLLEMVQLGHLAQRYPEQLSGGQKQRIALARALATQPEVLLLDEPFGALDAKVRKELRRWLRSLHDELKFTSVFVTHDQDEALELSDRVVVMSNGNIEQVNTPIELYAQPNSRFVFDFLGNVNRFEANWQQNRWTNGDAFIVPPEQTPLQQNGALYVRSHELALADKPNSQAHIPFTIVAITPIGAEVRVELAPIGWQSEELWEAKFTHHHLQELGLQKGSVVYATPRTGYFFGKQGDGSPIRQSWPFLPPGSLAFDI”, the protein production result is listed as “failed”. The same measure for “MSISRRDFNKLLLAGAAGSAFGLFGSGNTAFAARKRVVVIGGGFGGAATAKYLKKLDPTLAVTLIEPKPAFVTCPFSNWVLGGLRTMKDITHTYTALRTRHGVNVIADRVVSVDAAKGTLRLAGGRVIGYDRLVVSPGIDFKYDTIPGYSQKIAKSKMPHAWQAGPQTILLHRQLQAMKNGGTVVICPPDNPFRCPPGPYERASLIAYYLKQHKPKSKIVILDAKEKFSKQGLFTKGWESRYPGMIELRGSTGGGKVLGVDAKAMTVETDLGAVKGDVINVIPAQKAGKIAFEAGLTNEKGWCPVNPSSFESTIHQGIHVIGDACIAGAMPKSGFAASSQGKVAAVAIINLLRGQEPAPPSLVNTCYSLIGPKYGVSVAGVYQLSPTGIVEIPGSGGRLRPMPATNSWNRRRFSPKAGTPISARISGDKPLDSCGVPAVNHQAPLPLTHKATPDCRKR”: “failed”; for “MSITLLTGIGEIFLGILLNVFIGKIVKIVFKKDGTLPRVPVRFIGITLILNGVGNMVHL”: “failed”. Turning to “MSKDLLFWLTILLVLISGYLSYRKKRIESLTTAGLAGGFALSFMLYEKFPVLFSFLLGFIATFAFEWTRKR”, the protein production result was “failed”. The same measure for “MSKFKSHNSNNTKQTINKHALIFGLISVFLSGIGFTIISPVIPFLVQPYINNPGNQAIIVTLLTSVYAICMFFSAPGLGALSDKYGRRPVLLVCLLGSSIGYLIFGIGGALWVLFAGRIIDGITGGTISTIFAYFADIIPENERTKYFGWVSAVVGVGTIIGPTLGGLLAKFGYSVPLYFGAIITLLNVVYGFFFMPESLDKNIRLKEITFVRLNPFTQLANLLSIKSLKRLLISAFLLWIPNGSLQAVFSQFTIDTFSWKPAIIGLMFSIMGFQDIISQSLIMPKLLVKLSDKYIAILGMISEVIGYSLIAASALFYFYPLFIAGMFIFGFGDSIFGPSFNGMLSKSVDSSEQGRIQGGSQSIQALARMIGPIIGGQIYVSLGHATPAFMGIVLITVAIPVLYKNIHINI”: “failed”; for “MSKGYGVFGHVPDNADDDDLLPYEDDDSGVSWGHALRRRNPWKRGGDEGADYDDDRYGADDTDDTDDTNEDRSLFAGKSSGIGGISGEADGMLGGAGAAGSRAVTFGGTDSLSAADAVMPYRFRQGRSVWFEDEDEGHFAGAAKRAEAHAVPILALRNDVESSSSNAVLARARSIARKAATMVINPVYSENHRTGYAELDGILRGTTSPSSKYRTSVQFDLDTGEAVGGKCSCPAYGRGYGMCKHMIALAFIFCDDPQRFEGYRAGAVRPSRTLIDYMEHVDRQDAQAKARRRNALMRRFDTAKGRNGAGGRHTNSGYGSRAGTRGGGYQGDSETVGLGQVQLVPILSFIDGVWSVEFKIGSTSNGSSYVLKSIPQFVLTMANGDYTDYGQKLAFTHTPDMFDDDSRPLLGFLDDAMAVRRAAEQQDRYYGHIAIDRHLTLSAPEVARLLSVREGRGVQLVLNTWFSGQPASVPVDGGEPDFLMRIARRDFNTYGPDAGYLLTGVPAVETVIDGGKNVWLLLASANPAGVVSAMMAGSQRKSAAGCRFVRCPKRLIPLRGLLGDMFEPDGEGQVIAGDDIALFARTLLPQLVGAGLLEASEIPRELAELSPTECSLQFYLDRDEHGVQCEVKARYGDAIVPLLPDGPTVHARDERSIPLSRGVIGRDFDAEHLAIDVVREFFTMPDQRKRVAAATHQTVNGFRTPAARKTAKQFVPDAATIDRDDTTQIVRLFDEGLPALKEVGEVFTTPAFDRLIAPKPPSVKVGLSIKGNLVEISPLADEVPPDEVGALLSSYRRRQRFHQLKDGTLVKLSGANLSTLDRLASDLDLSEQQLNSGLIELPGGRAFLLDGELPDDGSDVVKDASFTEYIDDLKIIDPKSYEVPDSLKHILRPYQVEGFQWLNTLCDKGFGGILADEMGLGKSVQLIALLLSRYHNESSGMPTAQGMDAGNAGNSESAVTGHITFDSEDGGSHPSLIVCPASLVYNWGAEFAKFAPSFNAVVVAGTKAERRTAIGRAFRADEPTVLITSYDLLRRDVDDYTANEQRFNVMALDEAQYIKNHTTKIAKAVKAVAADHRFALTGTPIENRLSELWSIFDFLMPGLLGSYKRFHERYELPISNARAADGSTAEGRAAAQVNPEAARVSRQLQSLVGVFIKRRLKSQVLTDLPDKLETTLTVQLAGEQRKLYAAHEQRLRMQLEHSEEADFNTSKIRILAELTKLRQICCDPRLLYADAKDQSAKLAAITELVETCVNEGKKALIFSQFTSFLDLIAERFDAQGLRYYTITGSTPKKKRLELVDQFNADDTPAFLISLKAGNTGLNLTGASVVIHADPWWNAAAQDQATDRAHRIGQTEDVNVYQVVAKDTIEERILELQHTKSELARQFTDASLLADEAGTGASALTEAPASIATLTKDDLLNLLG”: “failed”.

Take “MSKHTKFSPEVRDRAIRMVYEVRESRTSQWAAIEAVASKIGCTAQTLSSWIRKAAAPAAPSASGTDARVKELEREVRELKRANEILKVASAFSAQAELDRRLK”: the protein production entry is given as “failed”. For “MSKIAIIVDSSSYIPKDQLKKHHIYVIDNPIIFGETIYHEFNWPVNADFYQQMATTPIQPTTSQPAPGDFEAAFQAAKDDGYKQALVITLSSGFSGTFLNTSAIASSHSDIDIHVWDSRIACLGAGNQALLAAYLAEKGIGIDEILSKLQILRSRTGVFFVVDSISHLQRTGRLSGGQALVAGLLNIKPILNINTNKQGKIDAVAKTRKMSGAWRYIEKHFAKIADNYQRAGWPMRVSILDADNPELADAWLKRAEKRWPEIIFERGIIGPLVGVHIGGKAVGLIWAEDYKRLED” the value was “failed”. The same measure for “MSKIASEVVATTLNDWYIAIKKQKVDESIKYYSEIKKLFDEMEEDQEVLAYYSLLEERHKMLLHSSRGEPLQKHTYFTEDNQNFITKTNDKLEYNFYLFEAMYEAYNKNYDRAINLYGLAEKKLAEIPDEIEAAEFYSKVSYLYTLVKQSIVAQHYIKNAISIYKRHPDYKCKLATSTMIAAANYADMKRFEEAEQYYLEAIDIAKETKDEFLKAQLFHNLSIVYSDWNKPDKCIESLEKAIGNESWLHSIYYINSLFMMIKELFKIDEKMKAINFYNKAQERLILMENKVYEAKISILYNLYCGELKNNFNNCISNIEFLKQQNELESVDELSYIAAKRFESIGAFEEATSFFNAKIWAEQKMNQVEGIL”: “failed”. The same measure for “MSKIEIFEAAGCCATSSVVVSDEAVKWNASAEWAKKHGVNIQRYSLAKNPQQFLNTPVIRAFLNTSGMESLPATLLDGQLVMAGKLPSREDIARWAGISLTQDWNEDSTQPRCCSIPRMP”: “failed”.

Consider “MSKIKWSNLWKGFAMGTTDLVPGVSGGTIALLLGIYDDFIRSISGLFSKRFWESLKFLLPIGIGMVVAIGLLSKLINYLLSTHTVPTMFFFVGLIGGIIPYLLKTSRFKHTFTTPHYLLLVVGIIVIVMMTVMNSGDKHAGETLSLSTGLILKYFIAGACASSAMLLPGISGSFMLLVFGVYGTIMYAISEFVSLNFAALPILITVGCGVLFGFLCSSKLIQYLLSYYTYLTYALIIGFVIGSLYAVFPGLPSTIMIWIVSIVTLLLGFVISYRLGRLTAD”, for which the protein production result is reported as “failed”. Take “MSKKGFFEYKLSKEIVRALTGLGYDHPTEVQGEVIPVALQKKDLVVKSQTGSGKTASFGIPLCEMVEWEENKPQALVLTPTRELAVQVKEDITNIGRFKRIKAAAIYGKSPFARQKLELKQKTHIVVGTPGRVLDHIEKGTLSLERLKYLVIDEADEMLNMGFIDQVEAIIDELPTNRMTMLFSATLPEDVERLSRTYMNAPTHIEIKAAGITTDKIEHTLFEAIEDEKFSLLKDVTTIENPDSCIIFCRTQENVDHVYRQLKRANYPCDKIHGGMVQEDRFEVMDDFRKGKFRYLVATDVAARGIDIDNITHVINYDIPLEKESYVHRTGRTGRAGNSGKAITFITPYENRFLEEIEEYIGFEIPKAIGPSKEEVMKGKAAFEEKIHAKPIIKKDKNADINKGIMKLYFNGGKKKKIRAVDFVGTIAKIKGVTAEDIGIITIQDNVSYVEILNGKGPLVLKVMKTTTIKGKQLKVHEAIK”: the protein production entry is “failed”. “MSKKPPNRPGITFEIGARLEALDYLQKWYPSRIEKIDYEEGKMLVHFERWSHRYDEWIYWDSNRLRPLERPALRKEGLKDE”: the protein production entry was “not failed”.

“MSKKSVLITSLMLFSMFFGAGNLIFPPMLGLSAGTNYLPAILGFLATSVLLPVLAIIAVVLSGENVKDMASRGGKIFGLVFPIAAYLSIGAFYALPRTGAVSYSTAVGVDNALYSGLFNFVFFAVALALSWNPNGIADKLGKWLTPALLTLIVVLVVLSVAKLDGTPGEPSSAYAQQPAGAGLLEGYMTMDAIAALAFGIVVISAFKYQKVNKVRTATVVSAFIAGILLALVYLGLGSIGQVVNGEFADGTAILNYAALSTMGQAGRIMFVAILILACMTTAVGLISATSEFFNSLLPGVKYHVWATVFALISFGVATMGLDTVLAVAAPVISFIYPSAITLVFLSLIEPLLFRLKWTYLFGIWTAVVWALFMSIPALNPFIEWAPLHSMSLGWVVPVLVASAIGLAIDWNKKGAQSVAKKESISV”: the protein production result was “failed”.

The record behind these values is a protein production outcome set (Wang et al. 2014).
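Further: failed if final PepcDB status was selected cloned or expressed and not failed if soluble or beyond.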
